Reference: the supplement of paper PMC6755084

B1: F1*; the commonest letter at each place (parent)
chain: GAGACCGCAACTGAAAAGTTGTTATCACTTGTCGTAAGACACTTTGGATGGGTTGAAGTTCTGCACGTAGAAGCAAAAGGC

Variants of: B1
Assay: fraction ligated after 30 min (ligated reads / total reads); higher = more ligase activity
Details: with F1*sub RNA substrate (template-directed ligation), 42 °C
Description: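 Chip-synthesised pool of F1* ligase ribozyme variants (all single and double substitutions, single, double and triple deletions in the catalytic core and GAA bulge, plus designed variants) was transcribed with T7 and reacted as a pool with excess substrate F1*sub for 30 min at 42 C in 50 mM EPPS pH 8.5, 25 mM MgCl2. Ligated and unligated bands were separated by PAGE, barcoded by RT and deep sequenced; fraction ligated = ligated reads / total reads per variant, relative activity = FL / FL of wild type (0.826). Sequences are the DNA template of the ribozyme.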

Variant	fraction ligated
T23C A41G	0.784
G38C G46C	0.523
G34A G55T	0.811
G47C G55A	0.11
A48C G50C	0.17
G34C G38T	0.811
T44C T45G	0.191
T29C C33T	0.816
T25C G38A	0.803
T23G A36T	0.841
A39G T49C	0.714
G31T T32C	0.816
T43G T49A	0.76
C28T G34A	0.814
C42A T49C	0.727
A27G T44G	0.813
T30C A48G	0.329
T44A G55A	0.827
C28T C33A	0.816
T30C A37T	0.805
C33A G34C	0.805

Variant	fraction ligated
C26A A36T	0.823
C40G G50C	0.134
T23C G47A	0.806
G50A A56G	0.0277
G38A A57C	0.825
G34T G47T	0.363
A27G T29A	0.829
A36C A48G	0.784
A24G A48C	0.729
T29C T30A	0.796
C42G G47T	0.68
C26T A41C	0.771
T30C C33A	0.824
A41T G50T	0.715
T43A A48G	0.807
A24T C33G	0.336
T30C A57G	0.818
T30C A57C	0.777
T25C G50C	0.379
A37G A57T	0.823
C40G G55A	0.808

Variant	fraction ligated
C33G A57T	0.836
T23A C33T	0.848
G34C A48C	0.756
T35G A36G	0.845
A27G A39T	0.814
T23G T30A	0.808
C28G C33A	0.757
G34A T44C	0.825
G58C	0.767
G46A G47C	0.146
T35A A56G	0.799
A37T G55T	0.828
C26G A48G	0.058
A37T G38C	0.841
T32G A39G	0.819
T29C G31C	0.804
C42A T44A	0.855
G38T T45A	0.783
C28A T29C	0.828
C28A T49A	0.679
T49C G55C	0.0675

Variant	fraction ligated
A24G A36C	0.833
G46C G55A	0.804
C33G G34A	0.829
G38T	0.852
A24G T49C	0.731
C26T T30A	0.832
C26A A48G	0.123
C40G A56T	0.805
T29C G34T	0.823
T35A T49A	0.763
C26A C33A	0.721
T25G A39T	0.393
A39T G47C	0.229
G46A A57C	0.793
G31T T44A	0.768
T29A G46A	0.808
T32G G46C	0.716
C26T C40A	0.797
C26T C40G	0.817
A48C T49C	0.335
A48C T49G	0.763
